Experimental data from patent US20080058636A1 (EPIX PHARMACEUTICALS, published 2008).
Bridge positions count the residues as written; N and C are the ends. Ends that are not written are not given here.

Key:
[1] = biological target: T1, rat collagen (acid soluble, type I, rat tail, Upstate 08-115) (rat, UniProt P02454 152-1207; P02466 86-1125); experiment: dried collagen assay
T1 construct: gelled and dried as a fibril film in the dried collagen assay; also called dried rat collagen; insoluble rat collagen
T1 sequence (P02454 152-1207, chain 1 of 2): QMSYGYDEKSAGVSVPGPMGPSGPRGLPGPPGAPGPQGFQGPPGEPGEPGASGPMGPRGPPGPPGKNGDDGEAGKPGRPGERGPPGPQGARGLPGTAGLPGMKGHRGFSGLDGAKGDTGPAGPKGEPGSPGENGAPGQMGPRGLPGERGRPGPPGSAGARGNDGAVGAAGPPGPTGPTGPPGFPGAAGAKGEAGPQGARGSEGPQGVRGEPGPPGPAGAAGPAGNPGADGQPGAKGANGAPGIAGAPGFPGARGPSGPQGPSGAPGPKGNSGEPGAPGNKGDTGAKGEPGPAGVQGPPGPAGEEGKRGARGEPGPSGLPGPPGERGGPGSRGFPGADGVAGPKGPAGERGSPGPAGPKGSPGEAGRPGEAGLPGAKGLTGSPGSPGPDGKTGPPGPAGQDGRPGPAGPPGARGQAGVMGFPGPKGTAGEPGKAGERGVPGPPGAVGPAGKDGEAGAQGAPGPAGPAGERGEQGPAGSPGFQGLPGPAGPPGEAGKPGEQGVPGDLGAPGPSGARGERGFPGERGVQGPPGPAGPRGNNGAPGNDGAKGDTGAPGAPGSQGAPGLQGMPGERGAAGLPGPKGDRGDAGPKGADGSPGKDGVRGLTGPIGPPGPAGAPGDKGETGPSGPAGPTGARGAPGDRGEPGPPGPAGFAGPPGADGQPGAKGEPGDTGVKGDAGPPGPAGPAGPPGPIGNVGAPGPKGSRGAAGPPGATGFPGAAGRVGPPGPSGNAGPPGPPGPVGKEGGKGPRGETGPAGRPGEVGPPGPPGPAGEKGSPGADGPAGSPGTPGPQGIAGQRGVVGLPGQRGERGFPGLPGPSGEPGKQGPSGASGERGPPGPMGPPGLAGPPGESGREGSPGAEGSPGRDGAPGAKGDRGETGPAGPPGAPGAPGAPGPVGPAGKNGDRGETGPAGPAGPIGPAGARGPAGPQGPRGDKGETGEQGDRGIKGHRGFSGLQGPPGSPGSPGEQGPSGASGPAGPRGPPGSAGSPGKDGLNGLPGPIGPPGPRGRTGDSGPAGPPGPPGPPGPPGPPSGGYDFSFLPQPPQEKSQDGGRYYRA
T1 sequence (P02466 86-1125, chain 2 of 2): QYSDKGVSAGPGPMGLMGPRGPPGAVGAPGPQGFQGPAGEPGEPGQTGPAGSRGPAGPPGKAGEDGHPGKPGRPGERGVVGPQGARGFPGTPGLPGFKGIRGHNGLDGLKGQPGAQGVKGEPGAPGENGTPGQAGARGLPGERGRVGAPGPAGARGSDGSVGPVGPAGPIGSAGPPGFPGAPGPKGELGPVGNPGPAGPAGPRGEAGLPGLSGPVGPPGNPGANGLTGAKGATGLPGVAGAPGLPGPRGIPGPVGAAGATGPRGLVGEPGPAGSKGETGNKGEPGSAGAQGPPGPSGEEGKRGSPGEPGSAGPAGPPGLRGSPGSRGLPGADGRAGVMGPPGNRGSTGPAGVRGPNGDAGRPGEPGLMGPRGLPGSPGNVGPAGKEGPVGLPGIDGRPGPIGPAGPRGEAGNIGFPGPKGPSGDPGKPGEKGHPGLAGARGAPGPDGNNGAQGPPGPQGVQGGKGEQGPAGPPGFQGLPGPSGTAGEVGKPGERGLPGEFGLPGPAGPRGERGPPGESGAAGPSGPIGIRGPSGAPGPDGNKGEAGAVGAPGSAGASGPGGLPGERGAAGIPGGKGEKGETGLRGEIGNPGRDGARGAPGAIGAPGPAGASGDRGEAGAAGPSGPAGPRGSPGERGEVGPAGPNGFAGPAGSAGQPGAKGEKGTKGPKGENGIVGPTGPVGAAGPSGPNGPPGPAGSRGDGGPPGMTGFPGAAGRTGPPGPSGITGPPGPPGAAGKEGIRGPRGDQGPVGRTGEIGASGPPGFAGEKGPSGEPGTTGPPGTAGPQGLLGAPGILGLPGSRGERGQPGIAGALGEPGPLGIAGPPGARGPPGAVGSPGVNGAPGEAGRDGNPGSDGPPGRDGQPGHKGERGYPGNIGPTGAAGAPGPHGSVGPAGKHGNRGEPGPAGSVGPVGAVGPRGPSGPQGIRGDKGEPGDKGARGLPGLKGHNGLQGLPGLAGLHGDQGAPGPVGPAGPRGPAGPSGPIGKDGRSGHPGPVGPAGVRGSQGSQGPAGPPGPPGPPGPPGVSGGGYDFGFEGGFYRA

[2] = biological target: T2, human collagen type I (acid soluble, extracted from placenta, Sigma C7774) (human, UniProt P02452 162-1218; P08123 80-1119); experiment: dried collagen assay
T2 construct: gelled and dried as a fibril film in the dried collagen assay; also called dried human collagen; h-Collagen
T2 sequence (P02452 162-1218 limits assumed, chain 1 of 2): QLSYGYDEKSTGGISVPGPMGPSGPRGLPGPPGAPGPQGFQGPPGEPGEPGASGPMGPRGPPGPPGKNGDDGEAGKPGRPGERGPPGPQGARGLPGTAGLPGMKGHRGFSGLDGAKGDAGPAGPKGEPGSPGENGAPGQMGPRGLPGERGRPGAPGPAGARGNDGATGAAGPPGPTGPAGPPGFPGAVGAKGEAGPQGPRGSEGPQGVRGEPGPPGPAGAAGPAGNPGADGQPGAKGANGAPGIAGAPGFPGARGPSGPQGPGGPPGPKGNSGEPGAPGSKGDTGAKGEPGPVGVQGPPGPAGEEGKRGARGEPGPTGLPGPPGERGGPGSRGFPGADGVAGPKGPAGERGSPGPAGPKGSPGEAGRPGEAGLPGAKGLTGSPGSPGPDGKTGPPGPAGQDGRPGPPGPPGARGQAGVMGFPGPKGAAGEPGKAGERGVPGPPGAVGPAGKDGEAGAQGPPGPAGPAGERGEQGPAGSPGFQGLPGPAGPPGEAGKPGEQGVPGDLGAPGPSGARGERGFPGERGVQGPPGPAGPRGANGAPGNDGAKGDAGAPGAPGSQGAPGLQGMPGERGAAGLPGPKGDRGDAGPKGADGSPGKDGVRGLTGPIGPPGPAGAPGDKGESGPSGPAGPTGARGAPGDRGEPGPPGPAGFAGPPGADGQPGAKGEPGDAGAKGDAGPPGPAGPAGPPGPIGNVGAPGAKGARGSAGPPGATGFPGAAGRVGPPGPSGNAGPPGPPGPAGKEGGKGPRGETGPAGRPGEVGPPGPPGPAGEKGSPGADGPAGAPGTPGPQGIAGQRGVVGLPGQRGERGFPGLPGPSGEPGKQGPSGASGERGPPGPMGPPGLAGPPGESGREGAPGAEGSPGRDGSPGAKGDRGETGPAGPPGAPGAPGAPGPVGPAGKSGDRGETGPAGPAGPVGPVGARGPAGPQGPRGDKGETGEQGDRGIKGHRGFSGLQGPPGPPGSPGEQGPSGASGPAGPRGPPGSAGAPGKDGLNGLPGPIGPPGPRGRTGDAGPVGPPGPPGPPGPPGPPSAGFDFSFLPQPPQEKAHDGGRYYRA
T2 sequence (P08123 80-1119 limits assumed, chain 2 of 2): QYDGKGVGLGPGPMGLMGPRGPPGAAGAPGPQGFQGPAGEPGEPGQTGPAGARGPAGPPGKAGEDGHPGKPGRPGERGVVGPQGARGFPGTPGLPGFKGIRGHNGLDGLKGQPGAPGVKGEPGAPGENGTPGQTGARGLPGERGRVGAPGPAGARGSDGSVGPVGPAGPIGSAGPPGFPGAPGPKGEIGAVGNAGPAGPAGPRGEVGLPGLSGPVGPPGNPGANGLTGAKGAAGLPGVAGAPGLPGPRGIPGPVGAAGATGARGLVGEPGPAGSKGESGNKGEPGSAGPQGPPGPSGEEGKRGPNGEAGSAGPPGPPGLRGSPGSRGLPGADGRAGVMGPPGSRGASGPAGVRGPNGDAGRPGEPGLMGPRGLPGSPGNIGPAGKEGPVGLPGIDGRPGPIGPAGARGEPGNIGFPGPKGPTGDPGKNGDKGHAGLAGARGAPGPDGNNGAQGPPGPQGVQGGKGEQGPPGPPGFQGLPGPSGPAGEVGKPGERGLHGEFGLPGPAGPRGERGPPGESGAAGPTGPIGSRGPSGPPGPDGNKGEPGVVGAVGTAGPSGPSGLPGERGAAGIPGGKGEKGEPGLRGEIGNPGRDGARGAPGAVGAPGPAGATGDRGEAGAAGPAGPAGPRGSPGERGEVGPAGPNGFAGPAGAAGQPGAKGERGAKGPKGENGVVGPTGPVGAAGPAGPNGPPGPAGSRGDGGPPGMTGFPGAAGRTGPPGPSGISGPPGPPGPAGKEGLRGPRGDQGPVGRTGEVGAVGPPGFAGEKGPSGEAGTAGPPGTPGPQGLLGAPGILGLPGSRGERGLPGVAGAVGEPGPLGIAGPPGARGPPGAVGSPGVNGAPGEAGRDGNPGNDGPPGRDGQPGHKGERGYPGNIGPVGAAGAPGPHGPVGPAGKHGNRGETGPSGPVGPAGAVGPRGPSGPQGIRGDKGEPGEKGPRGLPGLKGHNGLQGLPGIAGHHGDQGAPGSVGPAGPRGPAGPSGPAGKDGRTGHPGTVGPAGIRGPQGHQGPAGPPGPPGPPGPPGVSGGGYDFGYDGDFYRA

Row | % Collagen Binding [1] [%] | % Collagen Binding [2] [%] | Binder
1 | 6 | – | YHACYQAGCYIW (disulfide 4-9; not fully specified (C-terminus)) [SEQ ID NO: 107]
2 | 24 | 0 | YHASYQAGSWIW (not fully specified) [SEQ ID NO: 111]
